The results in this text go back to patent US20200071424A1 (SHIONOGI, published 2020).

Substitutions are numbered along the chain they refer to. Read-outs that look alike come from different tables or passages of the source.

By koff is commonly meant a measure of how fast the partners let go of each other. As a reminder, the kon is a measure of how fast the partners come together. For orientation: EC50 (read off the curve) means the concentration needed to bring the measured effect to its halfway point.

Test [1] addresses T1, baboon EL (baboon).
T1 construct: Heparin extract
In words: Biacore; EL captured by anti-C2-tag Ab; bivalent fit. As to the method: (§1) The binding affinities of anti-EL antibodies were measured using Biacore. […] Then, anti-EL antibodies were added and the binding affinities were calculated by bivalent fitting of BIAevaluation software.
A general note: SPR reads the build-up and loss of mass on a sensor chip optically.

Test [2] deals with T2, human [1-305]-mouse chimeric EL (human; mouse, UniProt Q9WVG5 306-500).
T2 construct: Heparin extract, captured or detected by an anti-C2-tag antibody; also called human-mouse chimeric EL
T2 sequence: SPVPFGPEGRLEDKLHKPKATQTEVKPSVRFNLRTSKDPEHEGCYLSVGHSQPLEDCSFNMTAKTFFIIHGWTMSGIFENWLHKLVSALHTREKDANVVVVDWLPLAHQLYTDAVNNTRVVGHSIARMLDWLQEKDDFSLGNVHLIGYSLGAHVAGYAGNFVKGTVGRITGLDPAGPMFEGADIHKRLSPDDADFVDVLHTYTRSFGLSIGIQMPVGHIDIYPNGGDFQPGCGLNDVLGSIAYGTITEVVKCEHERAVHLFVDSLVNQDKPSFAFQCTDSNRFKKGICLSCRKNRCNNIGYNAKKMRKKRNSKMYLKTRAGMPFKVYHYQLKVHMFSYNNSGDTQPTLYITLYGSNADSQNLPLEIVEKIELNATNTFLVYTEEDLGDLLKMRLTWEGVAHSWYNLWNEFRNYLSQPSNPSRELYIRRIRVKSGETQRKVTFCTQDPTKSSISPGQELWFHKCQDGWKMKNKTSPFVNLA
The test is described as above. The procedure:
as §1

Test [3] has as its target T3, cynomolgus monkey EL (cynomolgus monkey).
T3 construct: Heparin extract; also called cynomolgus EL; Cynomolgus EL
The description is as above. The procedure: as §1

In test [4] the target is T4, mouse EL (mouse, UniProt Q9WVG5 21-500).
T4 construct: Heparin extract
T4 sequence (looked up): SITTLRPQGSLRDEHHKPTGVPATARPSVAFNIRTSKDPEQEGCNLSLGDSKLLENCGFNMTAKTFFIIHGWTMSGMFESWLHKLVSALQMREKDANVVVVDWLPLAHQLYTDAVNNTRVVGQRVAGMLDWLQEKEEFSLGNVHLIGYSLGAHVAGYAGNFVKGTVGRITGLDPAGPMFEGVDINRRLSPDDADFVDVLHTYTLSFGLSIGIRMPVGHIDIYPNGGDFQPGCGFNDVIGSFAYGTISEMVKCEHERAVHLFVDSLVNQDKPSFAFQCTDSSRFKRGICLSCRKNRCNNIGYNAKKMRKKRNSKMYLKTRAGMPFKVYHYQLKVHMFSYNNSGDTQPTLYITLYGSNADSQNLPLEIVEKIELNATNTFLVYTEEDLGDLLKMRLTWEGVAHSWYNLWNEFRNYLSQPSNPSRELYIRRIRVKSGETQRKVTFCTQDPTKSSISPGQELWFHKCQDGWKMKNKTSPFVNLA
In words: ELISA: antibody captured on anti-mouse IgG-Fc plate, EL heparin extract added, detection with biotin anti-C2-tag antibody and HRP-streptavidin, A450. The procedure:
(§2) Assay buffer containing 15 μl of anti-EL antibody was added to anti-mouse IgG-Fc antibody-immobilized microtiter plate, and incubated for 2 hr. […] After washing the wells three times with 90 μL of washing buffer, 15 μl of assay buffer containing biotin-labeled anti-C2-tag antibody and HRP-labeled Streptavidin were added to the wells and incubated at room temperature for 1 hr. After washing the wells three times with 90 μL of washing buffer, 15 μL of TMB+—Substrate—Chromogen (DAKO) was added and incubated at room temperature for 30 min and then 15 μL of 0.05 M H2SO₄ was added and absorbance at 450 nm was measured (FIG. 3A to 3K).
A general note: ELISA stands for enzyme-linked immunosorbent assay.

The target of test [5] is T5, human [1-157]-mouse chimeric EL (human; mouse, UniProt Q9WVG5 158-500).
T5 construct: Heparin extract, detected by an anti-C2-tag antibody
T5 sequence: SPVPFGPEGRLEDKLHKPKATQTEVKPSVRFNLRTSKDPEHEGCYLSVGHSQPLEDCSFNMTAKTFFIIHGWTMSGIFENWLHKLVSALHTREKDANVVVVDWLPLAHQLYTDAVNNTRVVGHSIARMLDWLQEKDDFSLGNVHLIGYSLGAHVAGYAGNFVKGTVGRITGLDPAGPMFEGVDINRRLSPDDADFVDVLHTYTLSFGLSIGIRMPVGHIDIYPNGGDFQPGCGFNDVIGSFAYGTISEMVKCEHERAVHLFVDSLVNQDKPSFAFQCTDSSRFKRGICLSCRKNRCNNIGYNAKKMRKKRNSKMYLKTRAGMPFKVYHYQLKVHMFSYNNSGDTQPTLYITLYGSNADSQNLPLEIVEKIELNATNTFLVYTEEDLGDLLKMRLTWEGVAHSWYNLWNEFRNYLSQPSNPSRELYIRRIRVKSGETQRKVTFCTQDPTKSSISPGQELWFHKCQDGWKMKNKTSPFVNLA
Described as above. The procedure:
as §2

Test [6] has as its target T1, baboon EL. Described as above. As to the method: as §2
Test [7] addresses T3, cynomolgus monkey EL. The description is as above. As to the method: as §2
Test [8] addresses T1, baboon EL. Put plainly: cell-based or functional assay.
For test [9], the target named is human-mouse chimeric EL (construct not specified). Put plainly: cell-based or functional assay.
For another test, the target named is rabbit EL (rabbit). In words: cell-based or functional assay.
Test [10] has as its target T3, cynomolgus monkey EL. Put plainly: cell-based or functional assay.
Test [11] has as its target T3, cynomolgus monkey EL. Put plainly: cell-based or functional assay. The source holds these as a separate data set.
The target of test [12] is T2, human [1-305]-mouse chimeric EL. Put plainly: cell-based or functional assay.
Test [13] concerns the target T4, mouse EL. In words: cell-based or functional assay.
The target of test [14] is T1, baboon EL. In words: cell-based or functional assay. The source holds these as a separate data set.

B1: 13B3 (antibody, mouse IgG2a, V domains shown)
VH: EVQLQQSGPELLKPGASVKISCKASGYTFTEYTMHWVKQSHGKSLEWIGSINPYYGGTSYNEKFKDKATLTVDKSSNTAYMEFRSLTSEDCAVYYCARYGNYVGYFDYWGQGTTLTVSS
VL: ENVLTQSPAIMSASLGEKVTMSCRASSSVHYMYWYQQKSDASPKLWIYYTSNLAPGVPDRFSGSGSGNSYSLTISSMEGEDAATYYCQQFTSSPYTFGGGTKLEIK
notes: mouse IgG2a from hybridoma; also called 13B3 (mouse mAb)
On to B1, for which the Kd in the test with baboon EL [1] was determined as 5.1 nM; in test [2], 0.91 nM; with cynomolgus monkey EL [3] it was 8.7 nM. For the same molecule, the koff in the test with baboon EL [1] came to 0.00031 s⁻¹; in test [2], 0.00014 s⁻¹; with cynomolgus monkey EL [3] it was 0.00041 s⁻¹. Further, the results for the kon (with baboon EL [1]; in [2]; with cynomolgus monkey EL [3]) were 61000 M⁻¹ s⁻¹, 150000 M⁻¹ s⁻¹ and 47000 M⁻¹ s⁻¹, respectively. For the same molecule, in the test with mouse EL [4], the binding result was “no binding (tested: about 330 ng/mL)”. Also, the figures for the “EC50 (read off the curve)” value (in [5]; with baboon EL [6]; with cynomolgus monkey EL [7]) were approximately 4 ng/mL, approximately 20 ng/mL and approximately 10 ng/mL, respectively. Also, the “Neutralizing activity IC50” value in the test with baboon EL [8] amounted to 2.6 nM; in test [9] it was 4.1 nM; with rabbit EL, 13 nM; in the test with cynomolgus monkey EL [10] it was 1.7 nM; in the test with cynomolgus monkey EL [11], 3.1 nM; in test [12], 4.1 nM.

B2: h16F6-S2 (antibody, V domains shown)
VH: QVQLVQSGAEVKKPGASVKVSCKASGYTFTTYWIAWVRQAPGQGLEWMGEILPGSAKTKYNKKFKGRVTMTRDTSTSTVYMELSSLRSEDTAVYYCAVYDYGADYWGQGTTVTVSS
VL: DIQMTQSPSSLSASVGDRVTITCKASQDVYTAVAWYQQKPGKSPKLLIYSASYRFTGVPSRFSGSGAGTDFTLTISSLQPEDFATYYCQQHYSIPRTFGGGTKVEIK
For the molecule B2, the “Neutralizing activity IC50” value with mouse EL [13] amounted to 3 nM; with baboon EL [14] it was 3.3 nM.

B3: h16F6-S3 (antibody, V domains shown)
VH: B2 VH
VL: B2 VL with S63T
As to B3, the “Neutralizing activity IC50” value with mouse EL [13] was 3.3 nM; with baboon EL [14], 3.1 nM.

B4: h16F6-S4 (antibody, V domains shown)
VH: B2 VH
VL: B2 VL with S63T, L73F
With B4, the “Neutralizing activity IC50” value in the test with mouse EL [13] is 2 nM; in the test with baboon EL [14] it was 2.6 nM.

B5: 53A11 (antibody, mouse IgG2a, V domains shown)
VH: EVQLQQSGPELLKPGASVKISCKASGYTFTDYTMHWVKQSHGKSLEWIGGINPYYGGTTYNEKFKDKATLTVDKSSSTAYMELRSLTSEDSAVYYCAKGDYYGGSYNYWGQGTTLTVSS
VL: DIVLTQSLATLSVTPGDSVSLSCRASQDISNSLHWYQQKSHESPRLLIKYASQSISGIPSRFSGSGSGTDFTLSINSVETEDFGMYFCQQSNSWPYTFGGGTKLEIK
notes: mouse IgG2a from hybridoma; also called 53A11 (mouse mAb)
Consider B5, for which the Kd with baboon EL [1] is 1.6 nM; in test [2], 0.63 nM; in the test with cynomolgus monkey EL [3] it was 4.2 nM. Besides, the koff with baboon EL [1] was determined as 0.00026 s⁻¹; in [2], 0.00011 s⁻¹; with cynomolgus monkey EL [3], 0.00038 s⁻¹. Further, the kon with baboon EL [1] amounted to 170000 M⁻¹ s⁻¹; in [2] it was 180000 M⁻¹ s⁻¹; with cynomolgus monkey EL [3] it was 91000 M⁻¹ s⁻¹. For the same molecule, the binding result with mouse EL [4] was “no binding (tested: about 330 ng/mL)”. Further, the “EC50 (read off the curve)” value is approximately 6 ng/mL in test [5], approximately 20 ng/mL with baboon EL [6] and approximately 10 ng/mL in the test with cynomolgus monkey EL [7]. For the same molecule, the “Neutralizing activity IC50” value with baboon EL [8] came out at 2.4 nM; in test [9] it was 2.3 nM; with cynomolgus monkey EL [10], 1.9 nM; with cynomolgus monkey EL [11], 2.7 nM; in test [12], 2.6 nM.

B6: 55A1 (antibody, mouse IgG2a, V domains shown)
VH: QIHLVQSGPELKKPGETVKISCKASGYTFTNYGMNWVKQAPGKGLKWMGWINTYSGVPTYAGDFKGRFAFSLETSASTAYLQINNLKNEDTATYFCARRGYYGRRYFDVWGTGTTVTVSS
VL: DIVLTQSPASLAVSLGQRATISCKASQSVDYDVDSYMHWYQQKPGQPPKLLIYAASNLASGIPARFSGGGSGTDFTLNIHPVEEEDVATYYCQQTIEDPPTFGGGTKLEIK
notes: mouse IgG2a from hybridoma; also called 55A1 (mouse mAb)
Turning to B6, the Kd came out at 1.2 nM in the test with baboon EL [1], 0.73 nM in test [2] and 1.7 nM with cynomolgus monkey EL [3]. Further, the koff stood at 0.00042 s⁻¹ with baboon EL [1], 0.00014 s⁻¹ in test [2] and 0.00044 s⁻¹ in the test with cynomolgus monkey EL [3]. For the same molecule, the kon was 350000 M⁻¹ s⁻¹ with baboon EL [1], 190000 M⁻¹ s⁻¹ in test [2] and 250000 M⁻¹ s⁻¹ in the test with cynomolgus monkey EL [3]. In the test with mouse EL [4], the binding result is recorded as “no binding (tested: about 330 ng/mL)”. The “EC50 (read off the curve)” value in test [5] is approximately 4 ng/mL; with baboon EL [6], approximately 10 ng/mL; with cynomolgus monkey EL [7] it was approximately 5 ng/mL. In addition, the “Neutralizing activity IC50” value is 2 nM in the test with baboon EL [8]; 1.1 nM in test [9]; 1.5 nM in the test with cynomolgus monkey EL [10]; 1.3 nM with cynomolgus monkey EL [11]; 1.1 nM in test [12].

B7: 23H8 (antibody, mouse IgG2a, V domains shown)
VH: EVQLQQSGPELLKPGASVKISCKASGYTFTDNTIHWVKQSHGKSLEWIGHINPYYGGTNNNEKFKDKATLTVDKSSSTAYMELRSLTSEDSAIYYCARKGIYYSSPFDYWGQGTTLTVSS
VL: DIQMTQTTSSLSASLGDRVTISCRASQDINNYLNWYQQKPDGTVKLLISYTSKLHSGVPSRFSGSGSGTDYSLTISNLEREDFATYFCQQGNTLPFTFGSGTNLEIK
notes: mouse IgG2a from hybridoma; also called 23H8 (mouse mAb)
For B7, the Kd in the test with baboon EL [1] amounted to 2.9 nM; in test [2] it was 0.87 nM; with cynomolgus monkey EL [3] it was 6.1 nM. Further, the koff with baboon EL [1] stood at 0.00044 s⁻¹; in test [2] it was 0.00011 s⁻¹; with cynomolgus monkey EL [3] it was 0.00075 s⁻¹. Also, the figures for the kon (in the test with baboon EL [1]; in test [2]; in the test with cynomolgus monkey EL [3]) were 150000 M⁻¹ s⁻¹, 120000 M⁻¹ s⁻¹ and 120000 M⁻¹ s⁻¹, respectively. Also, the binding result with mouse EL [4] is “no binding (tested: about 330 ng/mL)”. The “EC50 (read off the curve)” value in test [5] is approximately 4 ng/mL; in the test with baboon EL [6], approximately 20 ng/mL; in the test with cynomolgus monkey EL [7], approximately 8 ng/mL. Further, the “Neutralizing activity IC50” value with baboon EL [8] amounted to 3.2 nM; in [9], 1.7 nM; in the test with rabbit EL, 67 nM; with cynomolgus monkey EL [10], 2.7 nM; in the test with cynomolgus monkey EL [11], 1.4 nM; in [12], 1.7 nM.
